Measurements taken from publication PMC5755580.

Tests used:
[1] = target: VvPrx3 (C73S) (Vibrio vulnificus); assay: SDS-PAGE under nonreducing or reducing conditions (intermolecular disulfide bond); reduced VvPrx3 (C73S) reacted with various concentrations of H2O2 or t-BOOH for 30 min at 298 K in 20 mM Tris-HCl pH 8.0, 150 mM NaCl; stopped with iodoacetamide; boiled with or without 10 mM DTT
[2] = target: VvPrx3 (C73S) (Vibrio vulnificus); assay: SDS-PAGE under nonreducing conditions (intermolecular disulfide bond), time course; VvPrx3 (C73S) 70 µM reacted with 50 µM H2O2 for 0-60 s; quenched with 10 mM N-ethylmaleimide; band density by ImageJ

## VvPrx3 (C73S) (enzyme)
[1]
  stoichiometry N: 2
[2]
  protein linked by a disulfide bond at 30 s (70 µM protein, 50 µM H2O2): 30 µM
